Data published in patent US20180155451A1 (published 2018).

Biological target: FcγRIIa H (human FcγRIIa, allotype with His at position 131), extracellular domain with C-terminal His tag (human, UniProt P12318 34-217)
Experiment: SPR (Biacore), antibody captured on antigen peptide chip, FcγR as analyte; relative to HoCon Ab GpH7-B3/GpL16-k0 = 100

Row | Ho/Con_2aH [control = 100] | Binder
1 | 101 | GpH7-B3 variant A330_16H/GpL16-k0 (antibody, human IgG1, kappa, homodimerized, mutation in both H chains; also called Ho Ab) heavy: not shown light: DIVMTQSPLSLPVTPGEPASISCQASESLVHSNRNTYLHWYLQKPGQSPQLLIYKVSNRFSGVPDRFSGSGSGTDFTLKISRVEAEDVGVYYCSQNTHVPPTFGQGTKVEIERTVAAPSVFIFPPSDEQLKSGTASVVCLLNNFYPREAKVQWKVDNALQSGNSQESVTEQDSKDSTYSLSSTLTLSKADYEKHKVYACEVTHQGLSSPVTKSFNRGEC
2 | 101 | GpH7-B3 variant G236_07I/GpL16-k0 (antibody, human IgG1, kappa, homodimerized, mutation in both H chains; also called Ho Ab) heavy: not shown light: DIVMTQSPLSLPVTPGEPASISCQASESLVHSNRNTYLHWYLQKPGQSPQLLIYKVSNRFSGVPDRFSGSGSGTDFTLKISRVEAEDVGVYYCSQNTHVPPTFGQGTKVEIERTVAAPSVFIFPPSDEQLKSGTASVVCLLNNFYPREAKVQWKVDNALQSGNSQESVTEQDSKDSTYSLSSTLTLSKADYEKHKVYACEVTHQGLSSPVTKSFNRGEC
3 | 101 | GpH7-B3 variant K326_10E/GpL16-k0 (antibody, human IgG1, kappa, homodimerized, mutation in both H chains; also called Ho Ab) heavy: not shown light: DIVMTQSPLSLPVTPGEPASISCQASESLVHSNRNTYLHWYLQKPGQSPQLLIYKVSNRFSGVPDRFSGSGSGTDFTLKISRVEAEDVGVYYCSQNTHVPPTFGQGTKVEIERTVAAPSVFIFPPSDEQLKSGTASVVCLLNNFYPREAKVQWKVDNALQSGNSQESVTEQDSKDSTYSLSSTLTLSKADYEKHKVYACEVTHQGLSSPVTKSFNRGEC
4 | 100 | GpH7-B3 variant I336_06M/GpL16-k0 (antibody, human IgG1, kappa, homodimerized, mutation in both H chains; also called Ho Ab) heavy: not shown light: DIVMTQSPLSLPVTPGEPASISCQASESLVHSNRNTYLHWYLQKPGQSPQLLIYKVSNRFSGVPDRFSGSGSGTDFTLKISRVEAEDVGVYYCSQNTHVPPTFGQGTKVEIERTVAAPSVFIFPPSDEQLKSGTASVVCLLNNFYPREAKVQWKVDNALQSGNSQESVTEQDSKDSTYSLSSTLTLSKADYEKHKVYACEVTHQGLSSPVTKSFNRGEC
5 | 110 | GpH7-B3 variant L328_14T/GpL16-k0 (antibody, human IgG1, kappa, homodimerized, mutation in both H chains; also called Ho Ab) heavy: not shown light: DIVMTQSPLSLPVTPGEPASISCQASESLVHSNRNTYLHWYLQKPGQSPQLLIYKVSNRFSGVPDRFSGSGSGTDFTLKISRVEAEDVGVYYCSQNTHVPPTFGQGTKVEIERTVAAPSVFIFPPSDEQLKSGTASVVCLLNNFYPREAKVQWKVDNALQSGNSQESVTEQDSKDSTYSLSSTLTLSKADYEKHKVYACEVTHQGLSSPVTKSFNRGEC
6 | 111 | GpH7-B3 variant H268_02A/GpL16-k0 (antibody, human IgG1, kappa, homodimerized, mutation in both H chains; also called Ho Ab) heavy: not shown light: DIVMTQSPLSLPVTPGEPASISCQASESLVHSNRNTYLHWYLQKPGQSPQLLIYKVSNRFSGVPDRFSGSGSGTDFTLKISRVEAEDVGVYYCSQNTHVPPTFGQGTKVEIERTVAAPSVFIFPPSDEQLKSGTASVVCLLNNFYPREAKVQWKVDNALQSGNSQESVTEQDSKDSTYSLSSTLTLSKADYEKHKVYACEVTHQGLSSPVTKSFNRGEC
7 | 112 | GpH7-B3 variant L328_20W/GpL16-k0 (antibody, human IgG1, kappa, homodimerized, mutation in both H chains; also called Ho Ab) heavy: not shown light: DIVMTQSPLSLPVTPGEPASISCQASESLVHSNRNTYLHWYLQKPGQSPQLLIYKVSNRFSGVPDRFSGSGSGTDFTLKISRVEAEDVGVYYCSQNTHVPPTFGQGTKVEIERTVAAPSVFIFPPSDEQLKSGTASVVCLLNNFYPREAKVQWKVDNALQSGNSQESVTEQDSKDSTYSLSSTLTLSKADYEKHKVYACEVTHQGLSSPVTKSFNRGEC
8 | 100 | GpH7-B3 variant K326_19Q/GpL16-k0 (antibody, human IgG1, kappa, homodimerized, mutation in both H chains; also called Ho Ab) heavy: not shown light: DIVMTQSPLSLPVTPGEPASISCQASESLVHSNRNTYLHWYLQKPGQSPQLLIYKVSNRFSGVPDRFSGSGSGTDFTLKISRVEAEDVGVYYCSQNTHVPPTFGQGTKVEIERTVAAPSVFIFPPSDEQLKSGTASVVCLLNNFYPREAKVQWKVDNALQSGNSQESVTEQDSKDSTYSLSSTLTLSKADYEKHKVYACEVTHQGLSSPVTKSFNRGEC
9 | 103 | GpH7-B3 variant K334_08L/GpL16-k0 (antibody, human IgG1, kappa, homodimerized, mutation in both H chains; also called Ho Ab) heavy: not shown light: DIVMTQSPLSLPVTPGEPASISCQASESLVHSNRNTYLHWYLQKPGQSPQLLIYKVSNRFSGVPDRFSGSGSGTDFTLKISRVEAEDVGVYYCSQNTHVPPTFGQGTKVEIERTVAAPSVFIFPPSDEQLKSGTASVVCLLNNFYPREAKVQWKVDNALQSGNSQESVTEQDSKDSTYSLSSTLTLSKADYEKHKVYACEVTHQGLSSPVTKSFNRGEC
10 | 112 | GpH7-B3 variant S239_09D/GpL16-k0 (antibody, human IgG1, kappa, homodimerized, mutation in both H chains; also called Ho Ab) heavy: not shown light: DIVMTQSPLSLPVTPGEPASISCQASESLVHSNRNTYLHWYLQKPGQSPQLLIYKVSNRFSGVPDRFSGSGSGTDFTLKISRVEAEDVGVYYCSQNTHVPPTFGQGTKVEIERTVAAPSVFIFPPSDEQLKSGTASVVCLLNNFYPREAKVQWKVDNALQSGNSQESVTEQDSKDSTYSLSSTLTLSKADYEKHKVYACEVTHQGLSSPVTKSFNRGEC
11 | 101 | GpH7-B3 variant K334_16H/GpL16-k0 (antibody, human IgG1, kappa, homodimerized, mutation in both H chains; also called Ho Ab) heavy: not shown light: DIVMTQSPLSLPVTPGEPASISCQASESLVHSNRNTYLHWYLQKPGQSPQLLIYKVSNRFSGVPDRFSGSGSGTDFTLKISRVEAEDVGVYYCSQNTHVPPTFGQGTKVEIERTVAAPSVFIFPPSDEQLKSGTASVVCLLNNFYPREAKVQWKVDNALQSGNSQESVTEQDSKDSTYSLSSTLTLSKADYEKHKVYACEVTHQGLSSPVTKSFNRGEC
12 | 101 | GpH7-B3 variant K326_06M/GpL16-k0 (antibody, human IgG1, kappa, homodimerized, mutation in both H chains; also called Ho Ab) heavy: not shown light: DIVMTQSPLSLPVTPGEPASISCQASESLVHSNRNTYLHWYLQKPGQSPQLLIYKVSNRFSGVPDRFSGSGSGTDFTLKISRVEAEDVGVYYCSQNTHVPPTFGQGTKVEIERTVAAPSVFIFPPSDEQLKSGTASVVCLLNNFYPREAKVQWKVDNALQSGNSQESVTEQDSKDSTYSLSSTLTLSKADYEKHKVYACEVTHQGLSSPVTKSFNRGEC
13 | 111 | GpH7-B3 variant G236_03V/GpL16-k0 (antibody, human IgG1, kappa, homodimerized, mutation in both H chains; also called Ho Ab) heavy: not shown light: DIVMTQSPLSLPVTPGEPASISCQASESLVHSNRNTYLHWYLQKPGQSPQLLIYKVSNRFSGVPDRFSGSGSGTDFTLKISRVEAEDVGVYYCSQNTHVPPTFGQGTKVEIERTVAAPSVFIFPPSDEQLKSGTASVVCLLNNFYPREAKVQWKVDNALQSGNSQESVTEQDSKDSTYSLSSTLTLSKADYEKHKVYACEVTHQGLSSPVTKSFNRGEC
14 | 110 | GpH7-B3 variant H268_18N/GpL16-k0 (antibody, human IgG1, kappa, homodimerized, mutation in both H chains; also called Ho Ab) heavy: not shown light: DIVMTQSPLSLPVTPGEPASISCQASESLVHSNRNTYLHWYLQKPGQSPQLLIYKVSNRFSGVPDRFSGSGSGTDFTLKISRVEAEDVGVYYCSQNTHVPPTFGQGTKVEIERTVAAPSVFIFPPSDEQLKSGTASVVCLLNNFYPREAKVQWKVDNALQSGNSQESVTEQDSKDSTYSLSSTLTLSKADYEKHKVYACEVTHQGLSSPVTKSFNRGEC
15 | 103 | GpH7-B3 variant E333_09D/GpL16-k0 (antibody, human IgG1, kappa, homodimerized, mutation in both H chains; also called Ho Ab) heavy: not shown light: DIVMTQSPLSLPVTPGEPASISCQASESLVHSNRNTYLHWYLQKPGQSPQLLIYKVSNRFSGVPDRFSGSGSGTDFTLKISRVEAEDVGVYYCSQNTHVPPTFGQGTKVEIERTVAAPSVFIFPPSDEQLKSGTASVVCLLNNFYPREAKVQWKVDNALQSGNSQESVTEQDSKDSTYSLSSTLTLSKADYEKHKVYACEVTHQGLSSPVTKSFNRGEC
16 | 101 | GpH7-B3 variant L235_04F/GpL16-k0 (antibody, human IgG1, kappa, homodimerized, mutation in both H chains; also called Ho Ab) heavy: not shown light: DIVMTQSPLSLPVTPGEPASISCQASESLVHSNRNTYLHWYLQKPGQSPQLLIYKVSNRFSGVPDRFSGSGSGTDFTLKISRVEAEDVGVYYCSQNTHVPPTFGQGTKVEIERTVAAPSVFIFPPSDEQLKSGTASVVCLLNNFYPREAKVQWKVDNALQSGNSQESVTEQDSKDSTYSLSSTLTLSKADYEKHKVYACEVTHQGLSSPVTKSFNRGEC
17 | 107 | GpH7-B3 variant L235_15Y/GpL16-k0 (antibody, human IgG1, kappa, homodimerized, mutation in both H chains; also called Ho Ab) heavy: not shown light: DIVMTQSPLSLPVTPGEPASISCQASESLVHSNRNTYLHWYLQKPGQSPQLLIYKVSNRFSGVPDRFSGSGSGTDFTLKISRVEAEDVGVYYCSQNTHVPPTFGQGTKVEIERTVAAPSVFIFPPSDEQLKSGTASVVCLLNNFYPREAKVQWKVDNALQSGNSQESVTEQDSKDSTYSLSSTLTLSKADYEKHKVYACEVTHQGLSSPVTKSFNRGEC
18 | 100 | GpH7-B3 variant L328_06M/GpL16-k0 (antibody, human IgG1, kappa, homodimerized, mutation in both H chains; also called Ho Ab) heavy: not shown light: DIVMTQSPLSLPVTPGEPASISCQASESLVHSNRNTYLHWYLQKPGQSPQLLIYKVSNRFSGVPDRFSGSGSGTDFTLKISRVEAEDVGVYYCSQNTHVPPTFGQGTKVEIERTVAAPSVFIFPPSDEQLKSGTASVVCLLNNFYPREAKVQWKVDNALQSGNSQESVTEQDSKDSTYSLSSTLTLSKADYEKHKVYACEVTHQGLSSPVTKSFNRGEC
19 | 101 | GpH7-B3 variant I336_08L/GpL16-k0 (antibody, human IgG1, kappa, homodimerized, mutation in both H chains; also called Ho Ab) heavy: not shown light: DIVMTQSPLSLPVTPGEPASISCQASESLVHSNRNTYLHWYLQKPGQSPQLLIYKVSNRFSGVPDRFSGSGSGTDFTLKISRVEAEDVGVYYCSQNTHVPPTFGQGTKVEIERTVAAPSVFIFPPSDEQLKSGTASVVCLLNNFYPREAKVQWKVDNALQSGNSQESVTEQDSKDSTYSLSSTLTLSKADYEKHKVYACEVTHQGLSSPVTKSFNRGEC
20 | 102 | GpH7-B3 variant H268_19Q/GpL16-k0 (antibody, human IgG1, kappa, homodimerized, mutation in both H chains; also called Ho Ab) heavy: not shown light: DIVMTQSPLSLPVTPGEPASISCQASESLVHSNRNTYLHWYLQKPGQSPQLLIYKVSNRFSGVPDRFSGSGSGTDFTLKISRVEAEDVGVYYCSQNTHVPPTFGQGTKVEIERTVAAPSVFIFPPSDEQLKSGTASVVCLLNNFYPREAKVQWKVDNALQSGNSQESVTEQDSKDSTYSLSSTLTLSKADYEKHKVYACEVTHQGLSSPVTKSFNRGEC
21 | 112 | GpH7-B3 variant L235_20W/GpL16-k0 (antibody, human IgG1, kappa, homodimerized, mutation in both H chains; also called Ho Ab) heavy: not shown light: DIVMTQSPLSLPVTPGEPASISCQASESLVHSNRNTYLHWYLQKPGQSPQLLIYKVSNRFSGVPDRFSGSGSGTDFTLKISRVEAEDVGVYYCSQNTHVPPTFGQGTKVEIERTVAAPSVFIFPPSDEQLKSGTASVVCLLNNFYPREAKVQWKVDNALQSGNSQESVTEQDSKDSTYSLSSTLTLSKADYEKHKVYACEVTHQGLSSPVTKSFNRGEC
22 | 103 | GpH7-B3 variant K334_04F/GpL16-k0 (antibody, human IgG1, kappa, homodimerized, mutation in both H chains; also called Ho Ab) heavy: not shown light: DIVMTQSPLSLPVTPGEPASISCQASESLVHSNRNTYLHWYLQKPGQSPQLLIYKVSNRFSGVPDRFSGSGSGTDFTLKISRVEAEDVGVYYCSQNTHVPPTFGQGTKVEIERTVAAPSVFIFPPSDEQLKSGTASVVCLLNNFYPREAKVQWKVDNALQSGNSQESVTEQDSKDSTYSLSSTLTLSKADYEKHKVYACEVTHQGLSSPVTKSFNRGEC
